Results on 18 sequences are retold here after a protein production outcome set (Wang et al. 2014).

The series is described as follows: label from the status in PepcDB records.
Regarding “MKVIKTAPLIPSEIKVLEKEGNRVKISLAPFEFGYAVTLAHPIRRLLLLSSVGYAPVGLKIEGVHHEFDSLRGVTEDVSLFIMNLKNIRFIAKALVGQDSSLENQSVVVDYSFKGPMELRARDLNSEQIEIVNPEMPLATINEDAQLNFSLIIYKGMGYVPSENTRELMPEGYMPLDGSFTPIKKVVYEIENVLVEGDPNYEKIIFDIETDGQIDPYKAFLSAVKVMSKQLGVFGERPIANTEYSGDYAQRDDAKDLSAKIESMNLSARCFNCLDKIGIKYVGELVLMSEEELKGVKNMGKKSYDEIAEKLNDLGYPVGTELSPEQRESLKKRLEKLEDKGGND”, the protein production result was “failed”.
The value for “MKVKKLVGTLLATALFFSALTATYYYQKYQALLANNVENTAKEALHQLAYTGREYNNIQDQIETISDLLGHSQSLYDYLREPSKANLTILENMWSSVARNQKLYKQIRFLDTSGTEKVRIKYDFKTSIAGPSLILRDKSAREYFKYAQSLDNEQISAWGIELERDKGELVYPLSPSLRILMPISVNDVRQGYLVLNVDIEYLSSLLNYSPVRDFHIELVKHKGFYIASPDESRLYGDIIPERSQFNFSNMYPDIWPRVVSEQAGYSYSGEHLIAFSSIKFVSNEPLHLIIDLSNEQLSKRATRDINDLIQESLFVLSLVLVFTLPITALALHYRRHSVESKLARAALDGMTAVMISDASLRIIMVNQEFENMMGYSTEQVKGSNAHSLILLPEDLEETLNIWNKLGRENVWEGEVRCRTQLNHVFTAIMRIQANLTKSGKISYYITSLVDISERKALEEQLRNLSEKDGLTGLWNRRKFEEQLTHYANIVERYPDTPTTCLALFDIDHFKRINDERGHDEGDKVICSVAETLLREVRTTDFVSRVGGEEFAVIMPHTTVKEAEVVLNRLRVAVQLRSNMTVTVSAGYSDLTADRTRSYKCADIALYESKSAGRNCVSLCHSIDDIA” was “failed”.
Under “MKVKKYDQFNESCYQAQLDNGLTVTLLPKAGYHKTYATFTTNYGSIDNTFVPAGSTEMQRFPDGIAHFLEHKMFEKADHDAFQIFGQYGASANAFTSFTKTSYLFSATRHLQDNLMTLLDFVQDPYFTPATVDKEKGIIGQEIEMYDDDPSWRLYFGMIGNLYPNHPLQYDIAGTTESIAKITADDLYAAYRTFYHPENMTLFVVGNFDPDEVLGWITTNQATKKFAAFQPIERKIPETATDGHDIIPYRTIDMPVNRAKSIVGVKGLLPIEAGAAALKYRAAVNVLLELLFGDTSADYLRLYDQGIIDDTFGYDFELQSGFNFVTFSGETDDPAQFDAAIIDVLENWRTAVVGQEAALALVKKEMIGRVVFMANSLEAIANRYDQRLFGTATIFDEPGIIDQLTLADLQTVAEQLLTSQAISEYQIRPQAKS” stands “failed”.
The value for “MKVKSPLEVYNYLPRTNCGECGFDTCMSFAAHILDRSVTPLDCKPLVRDAEKDPKVKKKLEELLELTAPEIAEVVIGVGENAVKIGGEEVLHRHELTFFNPTGFFYDVWDTMDDKALEERCDRVVSYKKFYVGNFLTLDGFAVRCTSGDPKRYREVVKKVASYGKPLILVALDSECMKAALEEVADQRPLMYAATEGNWKEFLKLALEYKVPVTLRAKDLDLLKSMAVTFKQAGVKDIVLDPVTEPLGEGLKGTFERVIQLRRTAIAGQDKDVAYPIMITPIAAWLIEGDDVTKSYWEAVIASIFIVKYGDVMIFRSIDQHVVMPTITLRFNIYTDPRTPVQVEPGLRAINDPGPDDPVFITTNFALTYYTVESDLTSGGIKGWLLVLNTEGLGVEVSVAGGQFTASKVKELIEETKIEEKVNHRYLVIPGLAARLQGAIEDETGWKVLVGPMDSGRIKGWLEKNWPPKE” was “not failed”; that for “MKVLGISCSPRPGQTTDRLVQEVLNNIEAPTEFVSLSGRRIGPCLGCLGCVADNVCKVRDDMGELRPLIVEADALVIGAPNYFGMLNGLAHCFLERLYQFRHQEGGALHGKLGVAVGVGSAMPDSAVRDIEKFFSFSRIEPVGNVTAIGPASCFNCGHGEECREGAIHRVFGPGTKITADLTPNLSKQPDSLTAARTLGEKLTQRLKQG” was “failed”; that for “MKVLGYGREKKVILEAPNYDNDCVLANILAAHYLSSFDPVRARSYALAAESRLGKATLYEKAVFEAVSYLLSENMDDDVALELHSKLLKKFPKDLLSWKRVETLCSYMGRHDLSLPLFRKILPQNEGQVYVNGMLAFCLIELGHLREAEEAARKGCEINENDSWAHHALCHVLQTECRFKEAVKFMEEHSDSWDSCSSLRFSHNWWHVAVCYLEGGSHISKVEEVYDHQMWKELEKDDAVARDVYTDALGLLLRLDTRGKLDDGFQDRLEKLADSLTDKAMWYQDWLFDITTIWALSKVEKTSLAHELLEGLKSRTSAMNPKKQKLMQKAILLAEAVYEYGKGNYEIALELLGLDFDAANYKVIGGSGLQMDVFNEIWYKLLLLNGKSSTGTLLKNTIISIYFGYIFVFSATNSAFTTPEPAAIEVLEKVTKQRDGAPFLWRLLEESYSMEGKEKAGISAGKKAKALESSYFKSA” was “failed”.
Turning to “MKVLILGGGYTGQRLAQLLAAQSIPVLATTRSGQWPLDEPCVTFDAGSTPLLLPDPAALAGVTHVLSTIPPLGDGGDPVLSTLLPTLQYLSLQWCGYLSTTGVYGDTQGAWVDEDSPLQSTNRRSQQRIAIEAQWLASGLPAHIFRLPGIYGPGRSSFDRLRRGDNQRLLKPGHVFCRIHVDDIAAALWASLQQPNPGRIYNVSDDFPCEPALLIEAAAQLMGVELPPPLPVDAVELSPMAASFWSECRRVRNDRLKQELGVQLRYPSYREGLAAIWAAELEHHHHHH”, the protein production entry is given as “failed”.
On to “MKVLRLGIVFQLLFVLLLTVGNFARIFIIDHYSVYPIAFFELFLGIGSLSCGVYGLIKTEKPILSLWLICFGLLICVFFIVVYLLPEGDIPPEITWFYSE”, for which the protein production result is “failed”.
“MKVLSYLKNFYLFLAIGAIMQASENMGSQHQKTDERVIYLAGGCFWGLEAYMERIYGVIDASSGYANGKTSSTNYEKLHESDHAESVKVIYDPKKISLDKLLRYYFKVVDPVSVNKQGNDVGRQYRTGIYYVNSADKEVIDHALKALQKEVKGKIAIEVEPLKNYVRAEEYHQDYLKKHPSGYCHIDLKKADEVIVDDDKYTKPSDEVLKKKLTKLQYEVTQNKHTEKPFENEYYNKEEEGIYVDITTGEPLFSSADKYDSGCGWPSFSKPINKDVVKYEDDESLNRKRIEVLSRIGKAHLGHVFNDGPKELGGLRYCINSAALRFIPLKDMEKEGYGEFIPYIKKGELKKYINDKKSH”: the protein production entry is reported as “failed”.
The value for “MKVLVIGNGGREHALAWKAAQSPLVETVFVAPGNAGTALEPALQNVAIGVTDIPALLDFAQNEKIDLTIVGPEAPLVKGVVDTFRAAGLKIFGPTAGAAQLEGSKAFTKDFLARHKIPTAEYQNFTEVEPALAYLREKGAPIVIKADGLAAGKGVIVAMTLEEAEAAVHDMLAGNAFGDAGHRIVIEEFLDGEEASFIVMVDGEHVLPMATSQDHKRVGDKDTGPNTGGMGAYSPAPVVTDDVHQRTMERIIWPTVKGMAAEGNTYTGFLYAGLMIDKQGNPKVIEFNCRFGDPETQPIMLRMKSDLVELCLAACESKLDEKTSEWDERASLGVVMAAGGYPGDYRTGDVIHGLPLEEVAGGKVFHAGTKLADDEQVVTNGGRVLCVTALGHTVAEAQKRAYALMTDIHWDDCFCRKDIGWRAIEREQN” was “failed”; that for “MKVNVSCSSVQTTIDILEENQGEDESILTLGQLRDRIATDNDVDVETMKLLHRGKFLQGADDVSLSTLNFKENDKIIVMGGKNALVDDAGFKMLMQYEKHNLSNLQKAYDLNLRDVADLERGFLEKPKQVEMGKKLEKKVKYFNEEAERHLETLDGMNIITETTPENQAKRNREKRKTLVNGIQTLLNQNDALLRRLQEYQSVLNGDIPE” was “not failed”.
The value for “MKVSDILTVAIRLEEEGERFYRELSEHFNGEIKKTFLELADQERIHAEIFRKMSDQENWDEVDSYLAGYAFYEVFPDTSEILRRKDLTLKEVLDIAISVEKDSIILYYELKDGLVNSDAQKTVKKIIDQEKEHLRKLLEMKREST” was “not failed”; that for “MKVSVEIITGTFIDTDVSEDATVKQMKEKIAVEVKLPVTRLILVIGDEETRRLVMEDEDDMMLRDLGVGEDSHIYLFFKHPDLVSKEERSKGEDDDDPMEEVSSEAESGRGNEEEVEKAKIDGEEEDQAMKDEEEDRDVKVEEDEEEKEKEKDGEAKYVKEEAREVEEADNKQEN” was “failed”.
For the sequence “MKVTDVRLRKIQTDGRMKALVSITLDEAFVIHDLRVIEGNSGLFVAMPSKRTPDGEFRDIAHPINSDMRQEIQDAVMKVYDETD”, the protein production result is “not failed”.
The value for “MKVVPEKNAVRILWGRERGTRAMGAQRLLQELVEDKTRWMKWEGKRVELPDSPRSTFLLAFSPDRTLLASTHVNHNIYITEVKTGKCVHSLIGHRRTPWCVTFHPTISGLIASGCLDGEVRIWDLHGGSESWFTDSNNAIASLAFHPTAQLLLIATANEIHFWDWSRREPFAVVKTASEMERVRLVRFDPLGHYLLTAIVNPSNQQGDDEPEIPIDGTELSHYRQRALLQSQPVRRTPLLHNFLHMLSSRSSGIQVGEQSTVQDSATPSPPPPPPQPSTERPRTSAYIRLRQRVSYPTTVECCQHPGILCLCSRCAGTRVPSLLPHQDSVPPASARATTPSFSFVQTEPFHPPEQASSTQQDQGLLNRPSAFSTVQSSTAGNTLRNLSLGPTRRSLGGPLSSHPSRYHRELAPGLTGSEWTRTVLTLNSRSEVESMPPPRTSASSVSLLSVLRQQEGGSQASVYTSATEGRGFPSSGLATESDGGNGSSQNNSGNIRHELQCDLRRFFLEYDRLQELDQSLSGETPQTQQAQEMLNNNIESERPGPSHQPTPHSSENNSNLSRGHLNRCRACHNLLTFNNDTLRWERTTPNYSSGEASSSWHVSTTFEGMPPSGNQLPPLERTEGQMPNSSRLELSSSASSQEERTVGVAFNQETGHWERIYTQSSRSGTVSQEALHQDMPEESSEEDSLRRRLLESSLISLSRYDGAGSREHPIYPDPARLSPAAYYAQRMIQYLSRRDSIRQRSMRYQQNRLRSSTSSSSSDNQGPSVEGTDLEFEDFEDNGDRSRHRAPRNARMSAPSLGRFVPRRFLLPEYLPYAGIFHERGQPGLATHSSVNRVLAGAVIGDGQSAVASNIANTTYRLQWWDFTKFDLPEISNASVNVLVQNCKIYNDASCDISADGQLLAAFIPSSQRGFPDEGILAVYSLAPHNLGEMLYTKRFGKG” was “failed”; that for “MKWVTYRSDHGERTGVLSGDAIYAMPPDVSLLDLVGRGADGLRTAGERAVRSPAAVVALDEVTLAAPIPRPPSIRDSLCFLDHMRNCQEAMGGGRVLMDTWYRIPAFYFACPSTVLGPYDDAPTAPGSAWQDFELEIAAVIGTSGKDLTVEQAERSIIGYTIFNDWSARDLQMLEGQLRIGQAKGKDSGITLGPYLVTPDELEPYCRGGKLSLRVIALVNGTVIGSGSTAQMDWSFGEVIAYASRGVTLTPGDVFGSGTVPTCTLVEHLRPPESFPGWLHDGDVVTLQVEGLGETRQTVRTSGTPFPLALRPNPDAEPDRRGVNPAPTRVPFTRGLHEVADRVWAWTLPDGGYGFSNAGLVAGDGASLLVDTLFDLALTREMLAAMKPVTERAPITDALITHSNGDHTHGTQLLDRSVRIIAAKGTSEEIEHGPAPEMLARIQTADLGPVATRYLRDRFGHFDFSGIKLRNADLTFDRDLAIELGGRRVDLLNLGPAHTTADSVVHVADAGVLFAGDLLFIGCTPIVWAGPIANWVAACDAMIALDAPTVVPGHGPVTGPDGIRAVRGYLAHIAEQAEAAYRKGLSLPEAVETIDLGEYASWLDSERVVVNVYQRYRELDPDTPRQDLLALLVMQAEWAARHCT” was “failed”.
The value for “MKWYEQPLHTLSHAQWEALCDGCGQCCLNQLLDEEDNLYSTDVACRLLDTKTASCSDYAHRSERVPACVTLTPDNLDEVYFMPASCAYRLRAEGQPLPQWHPLRHEGSKEPMKKAGYHVAGHCVSEAKFKGDLEDRIVTWPLS” was “failed”; that for “MKYCTLDDLILSFGQDEIYRLIATDQEAEKALDDAQAEIDMYLSDRYALPVKSVPKSLNRIACDIAHYYLYNSVDEDSTVYLRYKHRIKQLSDVAAGKLSLGLYDKSDDATTDNQVVFIKSSKKVFAR” was “not failed”.
